This passage reports binding signal (fold over QD-NC-AS1411) results from paper PMC9600270, “Quantum Dot-Based Screening Identifies F3 Peptide and Reveals Cell Surface Nucleolin as a Therapeutic Target for Rhabdomyosarcoma” (Cancers, 2022).

The target in the data set is nucleolin (cell surface, on RD and Rh30 rhabdomyosarcoma cells) (UniProt P19338). In words: FACS cell binding of QD conjugate. As to conditions: overnight 37 C, 5' AminoC6, QD-aptamer 10 nM (Methods; 20 nM in Figure 5b legend) with adherent cells, 12 h/overnight, 5% CO2, conjugates prepared in PBS pH 7.4/1% BSA.
nucleolin (cell surface, on RD and Rh30 rhabdomyosarcoma cells), sequence (P19338 whole entry): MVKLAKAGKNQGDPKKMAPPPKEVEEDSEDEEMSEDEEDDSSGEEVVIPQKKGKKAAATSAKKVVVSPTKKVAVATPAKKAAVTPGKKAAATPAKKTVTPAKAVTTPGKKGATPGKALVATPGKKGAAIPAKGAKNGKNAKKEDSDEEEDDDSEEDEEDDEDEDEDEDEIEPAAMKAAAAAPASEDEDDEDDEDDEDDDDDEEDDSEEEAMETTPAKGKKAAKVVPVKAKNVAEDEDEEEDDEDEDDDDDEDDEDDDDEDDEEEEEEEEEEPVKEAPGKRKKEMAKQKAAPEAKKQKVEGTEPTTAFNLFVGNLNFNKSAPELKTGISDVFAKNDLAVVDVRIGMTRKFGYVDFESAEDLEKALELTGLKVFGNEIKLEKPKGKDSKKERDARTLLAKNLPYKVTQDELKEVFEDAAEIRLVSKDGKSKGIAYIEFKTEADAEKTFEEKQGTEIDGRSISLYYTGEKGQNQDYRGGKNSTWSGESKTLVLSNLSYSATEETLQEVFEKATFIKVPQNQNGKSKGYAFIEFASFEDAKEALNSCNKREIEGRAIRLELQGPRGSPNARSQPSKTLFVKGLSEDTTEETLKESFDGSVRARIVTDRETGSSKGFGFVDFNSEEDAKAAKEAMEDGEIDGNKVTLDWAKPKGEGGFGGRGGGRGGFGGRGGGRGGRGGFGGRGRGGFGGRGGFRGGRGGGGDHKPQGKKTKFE

Take “TTGGTGGTGGTGGTTGTGGTGGTGGTGG [AS1411 (AGRO100)]”: the binding signal (fold over QD-NC-AS1411) by setting is: (RD cells) 8.8; (Rh30 cells) 2.2.
